A word on the stoichiometry N: it is a count of units in the complex or per binding partner.

Like-named read-outs stand apart in the source and are kept apart here.

Among the data in paper PMC10827139 are stoichiometry N values, retold here.

Common to all, as to assay: crystal structure
The target in assay [1] is proteolytic fragment of his-ICP0 391-776 (HSV-1 strain KOS) that crystallised (herpes simplex virus 1 (HSV-1), strain KOS).
The target of assay [2] is His-ICP0 (HSV-1 strain KOS infected cell protein 0, residues A636-Q776) (herpes simplex virus 1 (HSV-1), strain KOS).
Assay [3] shares this target. The source holds these as a separate data set.

In assay [1], “proteolytic fragment of his-ICP0 391-776 (HSV-1 strain KOS) that crystallised (domain or fragment)” gave a stoichiometry N of 2.
Take “His-ICP0 (HSV-1 strain KOS infected cell protein 0, residues A636-Q776) (domain or fragment)”: the stoichiometry N was 2 in assay [2] and 4 in assay [3].
